Measurements published in patent publication US20220204629A1 (NEW YORK UNIVERSITY, published 2022).

Tests used:
[1] = target: T1, human Galectin-9 CRD2 (residues 218-355) (human, UniProt O00182 218-355, biotinylated in vitro with BirA at the Avitag (where immobilised)); test: biolayer interferometry, G9.2-17 captured on anti-Fab probes, human gal-9 CRD2 in solution, global fit
T1 construct: also called human gal-9 CRD2; wild-type Galectin-9 CRD2; not shown: N-terminal hexahistidine tag, Avitag and TEV cleavage site of the pHBT vector
T1 sequence (O00182 218-355 limits assumed): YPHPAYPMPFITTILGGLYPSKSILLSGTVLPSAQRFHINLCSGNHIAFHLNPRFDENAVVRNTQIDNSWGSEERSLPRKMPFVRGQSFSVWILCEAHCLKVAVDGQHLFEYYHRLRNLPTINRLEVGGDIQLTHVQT
Method: (§1) FIGS. 16A-16D include graphs showing biolayer interferometry analysis to measure binding affinity to human (FIG. 16A), mouse (FIG. 16B), primate (FIG. 16C) or rat (FIG. 16D) gal-9 CRD2. G9.2-17 was captured onto anti-Fab probes and incubated either recombinant human, mouse, primate or rat gal-9 CRD2. Global fit, shown in black line, was used to calculate the dissociation constants. Representative data from triplicate runs shown.

rat galectin-9 CRD2 [2] = target: T2, rat galectin-9 CRD2 (rat, UniProt P97840 226-354, limits assumed); test: bead based binding, rat CRD2
T2 construct: domain: CRD2; Only two short stretches of the rat protein are given; also called CRD2 domain of rat galectin-9; rat gal-9 CRD2
T2 sequence (P97840 226-354 limits assumed): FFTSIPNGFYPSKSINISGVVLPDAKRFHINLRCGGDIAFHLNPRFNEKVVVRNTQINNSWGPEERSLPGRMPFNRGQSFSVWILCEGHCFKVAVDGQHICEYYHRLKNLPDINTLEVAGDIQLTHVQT

[3] = target: T1, human Galectin-9 CRD2 (residues 218-355); test: bead based binding, human CRD2
[4] = target: human Galectin-9 CRD2 W277A mutant (human, UniProt O00182 218-355, immobilised on streptavidin coated beads (biotinylated)); test: mutant on streptavidin beads, G9.2-17 titrated
Chain of human Galectin-9 CRD2 W277A mutant (O00182 218-355 W309A): as the sequence (O00182 218-355 limits assumed) above, with W92A counted along it
Method: (§2) FIG. 17 depicts a bar graph showing the results of epitope mapping studies of gal-9 CRD2 using alanine scanning to characterize G9.2-17 binding. Galectin-9 CRD2 mutants were generated using site-directed mutagenesis. Mutants were immobilized onto streptavidin coated beads and G9.2-17 was titrated to generate a saturation curve. KD values were calculated by fitting curves to Michaelis Menton kinetics. ΔΔG values of binding for each mutant versus wild-type galectin shown. Arrows indicate values that are outside the limit of detection for the assay. Higher ΔΔG values represent greater contribution to G9.2-17 epitope. Mutations were mapped onto the surface of gal CRD2 crystal structure (PDB 3nv4).
(§3) To determine the epitope of G9.2-17 on galectin-9 CRD2, we first mutated residues in several positions throughout CRD2 including R239, which is crucial for carbohydrate binding (Zhu et al., 2005). Only one mutation, W277K, decreased G9.2-17 binding. […] To further map the binding patch of G9.2-17, residues that are spatially adjacent to W277 were mutated to alanine and their binding was assessed. W277A and L279A result in complete abrogation of G9.2-17 binding in our assay. […] These residues are located adjacent in space in the beta-sheet, and form a patch on the back side of CRD2 relative to its carbohydrate recognition site.

[5] = target: human Galectin-9 CRD2 L279A mutant (human, UniProt O00182 218-355, immobilised on streptavidin coated beads (biotinylated)); test: mutant on streptavidin beads, G9.2-17 titrated
Chain of human Galectin-9 CRD2 L279A mutant (O00182 218-355 L311A): as the sequence (O00182 218-355 limits assumed) above, with L94A counted along it
Method: as §2, §3

rat galectin-9 CRD2 [6] = target: T2, rat galectin-9 CRD2; test: biolayer interferometry, G9.2-17 captured on anti-Fab probes, rat gal-9 CRD2 in solution, global fit
Method: as §1

[7] = target: T3, cynomolgus monkey galectin-9 CRD2 (cynomolgus monkey, UniProt A0A7N9IHL9 218-355); test: bead based binding, cynomolgus CRD2
T3 construct: domain: CRD2; Only two short stretches of a macaque protein are given; also called CRD2 domain of cynomolgus galectin-9; primate gal-9 CRD2

[8] = target: T3, cynomolgus monkey galectin-9 CRD2; test: biolayer interferometry, G9.2-17 captured on anti-Fab probes, primate gal-9 CRD2 in solution, global fit
Method: as §1

[9] = target: T1, human Galectin-9 CRD2 (residues 218-355); test: ELISA, antibody titrated over immobilized human CRD2
[10] = target: T4, human Galectin-9 CRD1 (residues 1-148) (human, UniProt O00182 1-148, biotinylated in vitro with BirA at the Avitag); test: bead assay, flow cytometry: biotinylated Galectin-9 CRD1 on streptavidin beads, G9.2-17 human IgG4 titrated
T4 construct: also called CRD1 domain of galectin-9; not shown: Avitag left upstream after thrombin cleavage of the GST fusion (pGEX)
T4 sequence (O00182 1-148): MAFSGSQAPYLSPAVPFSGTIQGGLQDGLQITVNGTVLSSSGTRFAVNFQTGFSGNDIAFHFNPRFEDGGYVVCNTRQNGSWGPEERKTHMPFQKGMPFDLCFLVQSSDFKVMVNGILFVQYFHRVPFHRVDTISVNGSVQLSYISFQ
Excerpt: For further characterization, one clone, […] (a human IgG4 molecule) was screened for CRD specificity. Biotinylated Galectin-9 CRD1 or CRD2 was immobilized onto streptavidin-coated magnetic beads. The beads were blocked with excess biotin, followed by titration of the G9.2-17 human IgG4 antibody. The beads were then stained and quantified via flow cytometry.

[11] = target: T4, human Galectin-9 CRD1 (residues 1-148); test: bead based binding
[12] = target: T4, human Galectin-9 CRD1 (residues 1-148); test: bead-based binding assay
Method: The affinities of the antibodies were assessed using a bead-based assay as previously described (Nishikori et al., J Mol Biol, 2012, 424, 391-399) and surface plasmon resonance (SPR). In the bead-based assay, a biotinylated protein (either a Galectin-9 sample or a Fab sample) was immobilized on streptavidin-coated Dynabeads M280 via the biotin-streptavidin interaction. After blocking the excess biotin-binding sites on the beads using unconjugated biotin, binding titration was performed by incubating the second component (i.e., Fab for immobilized Galectin-9 or vice versa), followed by quantification using a dye-labeled neutravidin (ThermoFisher) and flow cytometry analysis. In experiments where the second component is an IgG, a dye-labeled anti-human IgG or anti-mouse IgG antibody was used for detection.
The binding activity of clone G9.1-8m13 is evaluated using conventional methods.

Binder	Kd [1]	Kd (rat galectin-9 CRD2 [2])	Kd [3]	binding result [4]	binding result [5]	Kd (rat galectin-9 CRD2 [6])	Kd [7]	Kd [8]	Kd [9]	binding result [10]	binding result [11]	Kd [12]
G9.2-17 human IgG4 (antibody, V domains shown, also called G9.2-17 hIgG4; G9.2-17 IgG4) VH: EVQLVESGGGLVQPGGSLRLSCAASGFTVSSSSIHWVRQAPGKGLEWVAYISSSSGYTYYADSVKGRFTISADTSKNTAYLQMNSLRAEDTAVYYCARYWSYPSWWPYRGMDYWGQGTLVTVSS VL: DIQMTQSPSSLSASVGDRVTITCRASQSVSSAVAWYQQKPGKAPKLLIYSASSLYSGVPSRFSGSRSGTDFTLTISSLQPEDFATYYCQQSSTDPITFGQGTKVEIKR	0.183 nM	0.31 nM	0.15 nM	no binding	no binding	2.71 nM	0.31 nM	0.615 nM	0.42 nM	no binding (tested: 50 nM)		
G9.2-17 mIgG1 (antibody, V domains shown, also called mouse IgG1 version of G9.2-17; mIgG1 G9.2-17) VH: EVQLVESGGGLVQPGGSLRLSCAASGFTVSSSSIHWVRQAPGKGLEWVAYISSSSGYTYYADSVKGRFTISADTSKNTAYLQMNSLRAEDTAVYYCARYWSYPSWWPYRGMDYWGQGTLVTVSS VL: DIQMTQSPSSLSASVGDRVTITCRASQSVSSAVAWYQQKPGKAPKLLIYSASSLYSGVPSRFSGSRSGTDFTLTISSLQPEDFATYYCQQSSTDPITFGQGTKVEIKR		0.35 nM	0.18 nM				0.3 nM		0.45 nM		no binding	
G9.1-8m13 Fab (Fab, V domains shown, Fab purified from E. coli; also called purified G9.1-8m13 Fab; 9.1-8mut13) VH: EVQLVESGGGLVQPGGSLRLSCAASGFTVSSSSIHWVRQAPGKGLEWVAYIYPYSSSSSYADSVKGRFTISADTSKNTAYLQMNSLRAEDTAVYYCARYSTYSSKWVWGMDYWGQGTLVTVSS VL: DIQMTQSPSSLSASVGDRVTITCRASQSVSSAVAWYQQKPGKAPKLLIYSASSLYSGVPSRFSGSRSGTDFTLTISSLQPEDFATYYCQQSYYDSNPITFGQGTKVEIKR												20.7 nM
G9.1-8m13 mIgG2a (antibody, V domains shown, also called purified G9.1-8m13 mIgG2a molecule) VH: EVQLVESGGGLVQPGGSLRLSCAASGFTVSSSSIHWVRQAPGKGLEWVAYIYPYSSSSSYADSVKGRFTISADTSKNTAYLQMNSLRAEDTAVYYCARYSTYSSKWVWGMDYWGQGTLVTVSS VL: DIQMTQSPSSLSASVGDRVTITCRASQSVSSAVAWYQQKPGKAPKLLIYSASSLYSGVPSRFSGSRSGTDFTLTISSLQPEDFATYYCQQSYYDSNPITFGQGTKVEIKR												0.3 nM
